Data as given in patent publication US10087225B2, “Formulation of MK2 inhibitor peptides” (MOERAE MATRIX, INC., priority 2015, dated 2018).

Key:
EphA2(h) = EphA2(h) (Homo sapiens, UniProt P29317); assay: Kinase Profiling Assay; assay type: biochemical; details: 100 μM
Fgr(h) = Fgr(h) (Homo sapiens, UniProt P09769); assay: Kinase Profiling Assay; assay type: biochemical; details: 100 μM
PAK3(h) = PAK3(h) (Homo sapiens, UniProt O75914); assay: Kinase Profiling Assay; assay type: biochemical; details: 100 μM
Chain of PAK3(h) (O75914 whole entry): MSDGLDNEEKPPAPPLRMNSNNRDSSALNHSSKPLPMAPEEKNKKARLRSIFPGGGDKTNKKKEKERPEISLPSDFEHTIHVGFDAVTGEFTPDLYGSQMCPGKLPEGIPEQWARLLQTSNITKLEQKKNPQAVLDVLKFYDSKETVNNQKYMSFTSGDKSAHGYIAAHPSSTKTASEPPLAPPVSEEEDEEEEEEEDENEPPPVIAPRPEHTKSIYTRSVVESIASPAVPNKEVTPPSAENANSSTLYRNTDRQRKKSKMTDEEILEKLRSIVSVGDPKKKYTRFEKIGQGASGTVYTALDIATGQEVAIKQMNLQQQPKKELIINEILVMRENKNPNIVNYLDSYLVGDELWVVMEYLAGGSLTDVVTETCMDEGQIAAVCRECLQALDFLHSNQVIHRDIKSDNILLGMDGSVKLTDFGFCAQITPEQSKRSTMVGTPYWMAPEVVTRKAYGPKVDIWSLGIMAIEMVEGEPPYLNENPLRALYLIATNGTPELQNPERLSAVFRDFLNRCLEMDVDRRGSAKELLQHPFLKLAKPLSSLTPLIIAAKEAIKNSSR

[1] = Cytotoxicity assay (CytoTox-ONE); details: human, HCAVSMCs
Method: 200 μL of cell suspension (at 10,000 cells/well) were seeded onto 96-well plates to yield an approximate 70% confluence per well. Cells were allowed to adhere to the plate overnight. […] Treatments were subsequently removed and the cells were cultured in fresh complete growth medium for 24 hours. Cells were then washed 2× with PBS +/+ and cell viability was then determined by a CytoTox-ONE Homogenous Membrane Integrity assay (Promega) according to the manufacturer's protocol. Briefly, 100 μL of Ambion KDalert Lysis Buffer was added to each well, and then 100 μL of freshly prepared CytoTox-ONE reagent was added to each well. After 10 minutes of incubation, 50 μL of stop solution was added, and the fluorescence of each well (kλex=560 nm, λem, =590 nm) was determined with a TECAN Infinite M1000 Pro plate reader.

HCAVSMCs = assay: Flow cytometric intracellular uptake, retention and half-life (2 h treatment); details: fluorescence 0 and 5 days after treatment removal; listed as MK2i
Method: HCAVSMCs were grown to 80-90% confluence, harvested, and seeded at 20,000 cells/well in a 24 well plate and allowed to adhere overnight in low serum media (DMEM, 1% FBS, and 1% P/S). […] Following treatment, cells were washed with PBS −/−, washed with CellScrub buffer (Genlantis) for 10 minutes at room temperature to remove extracellular polyplexes and/or peptide, washed 2× in PBS −/−, and given fresh complete growth media. Cells were then incubated for an additional 0, 12, 24, 72, or 120 hours. Cells were then washed with PBS −/−, trypsinized, and resuspended in 0.1% Trypan blue in PBS (−/−) for analysis on a FACSCalibur flow cytometer (Becton Dickinson) with BD CellQuest™ Pro software (V 5.2). Data was exported and analyzed with FlowJo software (V 7.6.4). All samples were run in triplicate.

Ab1(Q252H)(h) = Ab1(Q252H)(h) (Homo sapiens, UniProt P00519, Q252H); assay: Kinase Profiling Assay; assay type: biochemical; details: 100 μM
Aurora-A(h) = target: T1, Aurora-A(h) (Homo sapiens, UniProt O14965); assay: Kinase Profiling Assay; assay type: biochemical; details: 100 μM
T1 sequence (O14965 1-403): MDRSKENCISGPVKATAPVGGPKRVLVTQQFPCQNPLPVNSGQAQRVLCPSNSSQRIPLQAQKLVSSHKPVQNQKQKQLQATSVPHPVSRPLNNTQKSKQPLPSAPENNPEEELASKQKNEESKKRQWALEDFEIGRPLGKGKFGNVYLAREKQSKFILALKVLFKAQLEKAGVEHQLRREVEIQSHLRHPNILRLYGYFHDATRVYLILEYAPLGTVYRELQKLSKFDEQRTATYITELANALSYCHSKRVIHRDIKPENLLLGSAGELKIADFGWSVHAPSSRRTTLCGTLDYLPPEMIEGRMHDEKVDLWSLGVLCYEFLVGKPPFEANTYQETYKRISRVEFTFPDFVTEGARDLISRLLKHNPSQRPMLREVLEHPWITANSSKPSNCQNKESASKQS

CDK9/cyclin T1(h) = CDK9/cyclin T1(h) (Homo sapiens, UniProt P50750); assay: Kinase Profiling Assay; assay type: biochemical; details: 100 μM
Chain of CDK9/cyclin T1(h) (P50750 whole entry): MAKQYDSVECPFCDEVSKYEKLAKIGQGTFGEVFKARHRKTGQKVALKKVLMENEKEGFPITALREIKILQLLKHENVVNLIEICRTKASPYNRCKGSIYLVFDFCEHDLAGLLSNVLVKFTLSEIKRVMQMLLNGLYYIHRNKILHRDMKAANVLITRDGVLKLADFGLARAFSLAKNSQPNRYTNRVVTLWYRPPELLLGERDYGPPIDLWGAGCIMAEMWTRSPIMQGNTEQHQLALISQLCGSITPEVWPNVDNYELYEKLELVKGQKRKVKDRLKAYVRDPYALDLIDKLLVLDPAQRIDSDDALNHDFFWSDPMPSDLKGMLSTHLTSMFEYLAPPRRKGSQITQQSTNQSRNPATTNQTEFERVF
Chain of CDK9/cyclin T1(h) (O60563 whole entry partner): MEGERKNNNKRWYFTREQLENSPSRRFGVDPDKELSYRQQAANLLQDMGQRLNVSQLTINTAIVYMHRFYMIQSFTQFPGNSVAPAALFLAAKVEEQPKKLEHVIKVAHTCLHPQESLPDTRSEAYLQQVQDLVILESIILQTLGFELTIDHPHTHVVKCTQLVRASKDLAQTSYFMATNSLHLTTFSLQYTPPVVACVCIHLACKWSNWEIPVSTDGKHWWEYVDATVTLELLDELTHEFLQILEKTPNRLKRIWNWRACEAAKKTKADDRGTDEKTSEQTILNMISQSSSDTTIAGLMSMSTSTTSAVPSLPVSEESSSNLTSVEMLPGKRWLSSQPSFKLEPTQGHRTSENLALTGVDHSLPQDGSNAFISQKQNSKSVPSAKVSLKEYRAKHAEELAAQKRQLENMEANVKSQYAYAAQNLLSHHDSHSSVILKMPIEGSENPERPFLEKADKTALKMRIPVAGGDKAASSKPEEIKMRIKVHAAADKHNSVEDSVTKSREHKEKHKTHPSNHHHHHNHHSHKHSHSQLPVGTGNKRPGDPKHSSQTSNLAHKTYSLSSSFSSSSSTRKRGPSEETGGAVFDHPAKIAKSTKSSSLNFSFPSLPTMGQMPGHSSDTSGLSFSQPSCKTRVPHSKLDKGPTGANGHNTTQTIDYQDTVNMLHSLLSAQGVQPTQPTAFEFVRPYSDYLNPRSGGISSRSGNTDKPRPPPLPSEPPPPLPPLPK

c-RAF(h) = c-RAF(h) (Homo sapiens, UniProt P04049); assay: Kinase Profiling Assay; assay type: biochemical; details: 100 μM
DDR2(h) = target: T2, DDR2(h) (Homo sapiens, UniProt Q16832); assay: Kinase Profiling Assay; assay type: biochemical; details: 100 μM
T2 sequence (Q16832 22-855): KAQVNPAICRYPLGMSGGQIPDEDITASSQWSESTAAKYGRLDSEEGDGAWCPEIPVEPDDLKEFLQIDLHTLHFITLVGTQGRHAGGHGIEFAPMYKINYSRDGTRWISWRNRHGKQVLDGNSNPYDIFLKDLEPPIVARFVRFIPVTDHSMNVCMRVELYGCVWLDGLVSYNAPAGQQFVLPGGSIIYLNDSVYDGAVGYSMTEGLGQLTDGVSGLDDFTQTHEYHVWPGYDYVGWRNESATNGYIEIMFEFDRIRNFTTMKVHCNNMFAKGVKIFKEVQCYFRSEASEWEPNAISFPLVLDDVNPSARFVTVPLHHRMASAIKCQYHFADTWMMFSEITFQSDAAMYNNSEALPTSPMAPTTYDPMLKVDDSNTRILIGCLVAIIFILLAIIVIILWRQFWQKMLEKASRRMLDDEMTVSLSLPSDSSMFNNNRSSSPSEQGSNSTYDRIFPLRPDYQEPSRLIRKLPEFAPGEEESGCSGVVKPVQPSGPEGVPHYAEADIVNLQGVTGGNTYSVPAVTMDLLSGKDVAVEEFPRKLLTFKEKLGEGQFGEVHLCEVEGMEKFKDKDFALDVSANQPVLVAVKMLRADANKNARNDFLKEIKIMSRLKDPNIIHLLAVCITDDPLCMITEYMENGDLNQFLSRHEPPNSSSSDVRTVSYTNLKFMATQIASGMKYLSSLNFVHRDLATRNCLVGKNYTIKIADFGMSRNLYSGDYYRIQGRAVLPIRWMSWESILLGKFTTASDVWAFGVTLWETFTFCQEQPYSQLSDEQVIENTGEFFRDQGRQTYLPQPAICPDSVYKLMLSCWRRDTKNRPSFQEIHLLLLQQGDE

EphA1(h) = target: T3, EphA1(h) (Homo sapiens, UniProt P21709); assay: Kinase Profiling Assay; assay type: biochemical; details: 100 μM
T3 sequence (P21709 26-976): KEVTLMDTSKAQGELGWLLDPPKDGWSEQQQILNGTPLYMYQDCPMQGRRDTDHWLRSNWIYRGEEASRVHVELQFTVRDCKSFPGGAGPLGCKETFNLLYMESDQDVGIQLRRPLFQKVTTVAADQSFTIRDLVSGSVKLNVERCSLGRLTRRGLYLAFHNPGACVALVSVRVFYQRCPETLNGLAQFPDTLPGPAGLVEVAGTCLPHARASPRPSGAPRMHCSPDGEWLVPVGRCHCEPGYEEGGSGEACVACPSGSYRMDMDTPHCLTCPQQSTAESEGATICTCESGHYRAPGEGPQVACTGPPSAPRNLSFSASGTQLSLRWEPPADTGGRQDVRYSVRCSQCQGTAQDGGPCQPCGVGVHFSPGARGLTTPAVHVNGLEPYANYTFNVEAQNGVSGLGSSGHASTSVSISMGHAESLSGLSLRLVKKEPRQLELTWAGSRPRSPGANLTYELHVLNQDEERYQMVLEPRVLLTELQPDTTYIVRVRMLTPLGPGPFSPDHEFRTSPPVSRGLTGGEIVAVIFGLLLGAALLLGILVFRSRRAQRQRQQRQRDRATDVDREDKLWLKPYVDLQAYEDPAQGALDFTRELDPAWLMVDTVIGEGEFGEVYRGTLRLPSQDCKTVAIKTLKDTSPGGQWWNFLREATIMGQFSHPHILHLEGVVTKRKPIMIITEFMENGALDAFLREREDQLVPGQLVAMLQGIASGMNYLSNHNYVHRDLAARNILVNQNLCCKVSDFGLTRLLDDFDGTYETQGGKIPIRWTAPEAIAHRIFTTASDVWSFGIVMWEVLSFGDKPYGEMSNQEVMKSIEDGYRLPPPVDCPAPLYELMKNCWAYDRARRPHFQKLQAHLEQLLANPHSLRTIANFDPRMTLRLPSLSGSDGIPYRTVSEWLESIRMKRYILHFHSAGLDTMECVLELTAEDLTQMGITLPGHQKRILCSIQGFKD

MAPK2(h) = MAPK2(h) (Homo sapiens, UniProt P28482); assay: Kinase Profiling Assay; assay type: biochemical; details: 100 μM
Chain of MAPK2(h) (P28482 whole entry): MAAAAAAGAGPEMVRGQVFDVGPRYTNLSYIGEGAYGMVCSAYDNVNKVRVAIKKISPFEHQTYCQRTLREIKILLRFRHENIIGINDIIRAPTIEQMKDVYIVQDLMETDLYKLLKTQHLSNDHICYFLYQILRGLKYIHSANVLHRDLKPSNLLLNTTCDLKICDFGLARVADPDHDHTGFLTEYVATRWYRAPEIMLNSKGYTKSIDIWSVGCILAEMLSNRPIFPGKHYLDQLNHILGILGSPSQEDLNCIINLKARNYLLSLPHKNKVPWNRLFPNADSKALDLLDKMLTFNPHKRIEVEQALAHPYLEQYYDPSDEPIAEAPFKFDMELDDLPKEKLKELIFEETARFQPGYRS

MARK1(h) = MARK1(h) (Homo sapiens, UniProt Q9P0L2); assay: Kinase Profiling Assay; assay type: biochemical; details: 100 μM
Chain of MARK1(h) (Q9P0L2 whole entry): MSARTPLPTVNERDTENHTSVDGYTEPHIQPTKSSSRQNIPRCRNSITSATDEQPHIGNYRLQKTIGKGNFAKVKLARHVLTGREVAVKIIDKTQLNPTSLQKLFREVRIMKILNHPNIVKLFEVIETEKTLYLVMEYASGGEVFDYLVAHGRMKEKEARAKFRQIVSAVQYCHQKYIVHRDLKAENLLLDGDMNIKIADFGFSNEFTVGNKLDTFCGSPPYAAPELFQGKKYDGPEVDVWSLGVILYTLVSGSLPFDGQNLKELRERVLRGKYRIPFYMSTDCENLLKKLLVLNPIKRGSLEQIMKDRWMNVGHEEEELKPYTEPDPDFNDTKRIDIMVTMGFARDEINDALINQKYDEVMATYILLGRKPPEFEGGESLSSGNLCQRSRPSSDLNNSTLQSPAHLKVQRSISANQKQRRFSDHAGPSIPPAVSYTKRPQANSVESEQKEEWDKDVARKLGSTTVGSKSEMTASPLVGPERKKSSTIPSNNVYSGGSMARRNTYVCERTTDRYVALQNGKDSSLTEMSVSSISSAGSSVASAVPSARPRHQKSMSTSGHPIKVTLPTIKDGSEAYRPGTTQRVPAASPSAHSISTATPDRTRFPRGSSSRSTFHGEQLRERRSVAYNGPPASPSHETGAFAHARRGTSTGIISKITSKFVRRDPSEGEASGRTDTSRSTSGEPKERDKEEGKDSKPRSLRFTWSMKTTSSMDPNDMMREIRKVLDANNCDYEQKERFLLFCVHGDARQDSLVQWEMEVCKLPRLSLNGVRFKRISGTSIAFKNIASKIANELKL

PDGFRα(D842V)(h) = PDGFRα(D842V)(h) (Homo sapiens, UniProt P16234, D842V); assay: Kinase Profiling Assay; assay type: biochemical; details: 100 μM
Chain of PDGFRα(D842V)(h) (P16234 24-1089 D842V): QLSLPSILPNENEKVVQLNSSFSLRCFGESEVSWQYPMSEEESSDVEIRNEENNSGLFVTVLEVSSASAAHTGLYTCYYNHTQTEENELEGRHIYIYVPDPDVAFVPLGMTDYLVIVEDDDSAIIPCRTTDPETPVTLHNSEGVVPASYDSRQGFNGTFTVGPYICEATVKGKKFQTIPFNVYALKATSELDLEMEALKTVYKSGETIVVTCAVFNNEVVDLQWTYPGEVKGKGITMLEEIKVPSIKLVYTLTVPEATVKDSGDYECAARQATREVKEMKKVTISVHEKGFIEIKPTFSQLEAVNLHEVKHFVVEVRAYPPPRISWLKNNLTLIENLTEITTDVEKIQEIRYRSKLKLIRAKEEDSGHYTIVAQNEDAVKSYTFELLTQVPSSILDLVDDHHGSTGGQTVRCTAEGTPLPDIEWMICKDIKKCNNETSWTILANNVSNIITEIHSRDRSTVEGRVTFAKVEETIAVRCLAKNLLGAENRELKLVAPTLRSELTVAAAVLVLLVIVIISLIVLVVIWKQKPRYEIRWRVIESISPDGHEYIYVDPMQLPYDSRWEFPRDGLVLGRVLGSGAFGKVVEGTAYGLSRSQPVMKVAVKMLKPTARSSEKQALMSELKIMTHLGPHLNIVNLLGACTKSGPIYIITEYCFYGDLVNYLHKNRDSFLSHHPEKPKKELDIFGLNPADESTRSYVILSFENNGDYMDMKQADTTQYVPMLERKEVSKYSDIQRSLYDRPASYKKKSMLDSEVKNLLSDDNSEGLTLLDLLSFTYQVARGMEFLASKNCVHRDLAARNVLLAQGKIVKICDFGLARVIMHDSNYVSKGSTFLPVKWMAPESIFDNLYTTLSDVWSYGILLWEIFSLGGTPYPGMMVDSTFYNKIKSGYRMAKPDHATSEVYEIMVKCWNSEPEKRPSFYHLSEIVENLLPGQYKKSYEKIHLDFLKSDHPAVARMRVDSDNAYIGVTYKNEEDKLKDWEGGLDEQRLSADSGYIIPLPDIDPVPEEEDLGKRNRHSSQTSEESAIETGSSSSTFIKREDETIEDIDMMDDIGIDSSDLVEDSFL

Substance: YARAAARQARAKALNRQLGVA (Mammalian) [MMI-0200]
- % activity (EphA2(h)): 95%
- % activity (Fgr(h)): 71%
- % activity (PAK3(h)): 50%

Substance: H-YARAAARQARAKALARQLGVAA-OH [MMI-0100]
- viability at 2 h, 500 µM [1]: 76%
- intracellular half-life (t1/2) (HCAVSMCs): 98.4 h

Substance: HRRIKAWLKKIKALARQLGVAA (Mammalian) [MMI-0500]
- % activity (Ab1(Q252H)(h)): 40%
- % activity (Aurora-A(h)): 110%
- % activity (CDK9/cyclin T1(h)): 6%
- % activity (c-RAF(h)): 19%
- % activity (DDR2(h)): 79%
- % activity (EphA1(h)): 40%
- % activity (MAPK2(h)): 60%
- % activity (MARK1(h)): 110%
- % activity (PDGFRα(D842V)(h)): 170%
